{"source": "patent US20050054617A1", "about": "“Use of potent, selective and non toxic c-kit inhibitors for treating mastocytosis” (priority 2001, published 2005)", "origin": "cited, not measured here", "system": "systemic mastocytosis", "details": "person, infiltration of bone marrow, skin and gastric mucosa; recurrence after four months", "data": [{"molecule": "INFγ: interferon used in the art for mastocytosis (protein, UniProt P01579 24-161, looked up) Interferon gamma: QDPYVKEAENLKKYFNAGHSDVADNGTLFLGILKNWKEESDRKIMQSQIVSFYFKLFKNFKDDQSIQKSVETIKEDMNVKFFNSNKKKRDDFEKLTNYSVTDLNVQRKAIHELIQVMAELSPAAKTGKRKRSQMLFRG", "values": [{"measurement": "clinical outcome in systemic mastocytosis", "value": "improvement of the clinical situation and gastrointestinal and hematological signs"}]}]}
